Experimental data taken from JP2017014112A (dated 2017).

Assays:
[1] = target: T1, サバイビンとカルモジュリンとの融合タンパク質 (catalogue no. SUR0801, ATGen) (Homo sapiens (Human), UniProt O15392 1-142, fluorescein-labelled when used as prey in the pull-down); test: SPR, Biacore X100, fusion captured through biotin-CBP on SA chip, VHH 6.25-100 nM as analyte, single cycle
T1 construct: Bought fusion protein; Fluorescein-labelled in the pull-down; unlabelled and captured through biotin-CBP on the SA chip in the Biacore run; also called 融合タンパク質200; survivin-calmodulin fusion protein

[2] = target: T2, サバイビン (antigen of the competitive ELISA) (UniProt O15392 1-142); test: competitive ELISA: fixed VHH equilibrated with varied survivin, free VHH caught on antigen-coated plate, anti-His detection
T2 construct: also called サバイビン1010; 抗原

カルモジュリン = カルモジュリン (UniProt P0DP23 2-149); test: pull-down with bead-bound VHH, fluorescein-labelled prey, SDS-PAGE

T2 sequence (O15392 whole entry): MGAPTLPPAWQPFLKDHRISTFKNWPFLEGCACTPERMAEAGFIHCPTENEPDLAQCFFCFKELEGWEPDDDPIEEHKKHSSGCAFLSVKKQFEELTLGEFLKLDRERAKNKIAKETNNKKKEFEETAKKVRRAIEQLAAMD
T1 sequence (O15392 whole entry, the tested form may be a part): as the sequence (O15392 whole entry) above

Kd [1] [nM]	Binder	Kd [2] [nM]	binding result (カルモジュリン)
25.1	精製したVHH抗体(R7-A), C-terminal His×6, secreted from Brevibacillus (VHH, Expressed with the Brevibacillus secretion system and purified on Ni Sepharose) VHH: EVQLVESGGGSVQAGGSLRLSCAASGVSNTDMIMIWFRQAPGKEREGVLAAIYKNSTYYADSVKGRFTISQDNAKNTVYLQMNSLKPEDTAIYYCAAIRAVIGRHIRPHIYWGQGTQVTVGG	516	
	R7-AのDNA断片にコードされるVHH抗体 (cell-free translated, on the nucleic acid linker) (VHH, C-terminus covalently bound to the puromycin of the nucleic acid linker (linker carries biotin and fluorescein), Made in rabbit reticulocyte lysate and held on streptavidin magnetic beads through the linker for the pull-down; also called VHH抗体タンパク質120) VHH: EVQLVESGGGSVQAGGSLRLSCAASGVSNTDMIMIWFRQAPGKEREGVLAAIYKNSTYYADSVKGRFTISQDNAKNTVYLQMNSLKPEDTAIYYCAAIRAVIGRHIRPHIYWGQGTQVTVGG		no binding (tested: 200 nM)
	R7-EのDNA断片にコードされるVHH抗体 (VHH, C-terminus covalently bound to the puromycin of the nucleic acid linker (linker carries biotin and fluorescein), Cell-free translated, on the nucleic acid linker, as bait in the pull-down) VHH: EVQLVESGGGSVQAGGSLRLSCAASGVSNTDMIMIWFRQAPGKEREGVLAAIYKNSTYYADSVKGRFTISQDNAKNTVYLQMNSLKPEDTAVYYCAAISAVIGRHIRPHIYWGQGTQVTVGG		no binding (tested: 500 nM in the protein mix)
	R7-DのDNA断片にコードされるVHH抗体 (VHH, C-terminus covalently bound to the puromycin of the nucleic acid linker (linker carries biotin and fluorescein), Cell-free translated, on the nucleic acid linker, as bait in the pull-down) VHH: EVQLVESGGGSVQAGGSLRLSCAASGVSNTDMIMIWFRQAPGKEREGVLAAIYKNSTYYADSVKGRFTISQDNAKNTVYLQMNSLKPEDTAIYYCAAIAFNGHNHPILTIYWGQGTQVTVGG		no binding (tested: 500 nM in the protein mix)
	R7-BのDNA断片にコードされるVHH抗体 (VHH, C-terminus covalently bound to the puromycin of the nucleic acid linker (linker carries biotin and fluorescein), Cell-free translated, on the nucleic acid linker, as bait in the pull-down) VHH: EVQLVESGGGSVQAGGSLRLSCAASGIPIQDSVVLWFRQAPGKEREGVLAAKYRSPTYYADSVKGRFTISQDNAKNTVYLQMNSLKPEDTAIYYCAAIRAVIGRHIRPHIYWGQGTQVTVGG		no binding (tested: 200 nM alone; 500 nM in the protein mix)
